Measurements: patent publication US20130209454A1

How the values were obtained:
Test in all cases: cell-based or functional assay
[1] = molecular target: HIV-1 Env of strain 6540.v4.c1 (HIV-1)
[2] = molecular target: HIV-1 Env of strain 191821_E6_1 (HIV-1)
[3] = molecular target: HIV-1 Env of strain 1012_11_TC21_3257 (HIV-1)
[4] = molecular target: HIV-1 Env of strain BF1266.431a (HIV-1)
[5] = molecular target: HIV-1 Env of strain 235-47 (HIV-1)
[6] = molecular target: HIV-1 Env of strain 1394C9G1(Rev-) (HIV-1)
[7] = molecular target: HIV-1 Env of strain MS208.A1 (HIV-1)
[8] = molecular target: HIV-1 Env of strain 6041.v3.c23 (HIV-1)
[9] = molecular target: HIV-1 Env of strain CNE5 (HIV-1)
[10] = molecular target: HIV-1 Env of strain 6244_13_B5_4576 (HIV-1)
[11] = molecular target: HIV-1 Env of strain 249M B10 (HIV-1)
[12] = molecular target: HIV-1 Env of strain SC05_8C11_2344 (HIV-1)
[13] = molecular target: HIV-1 Env of strain BJOX010000.06.2 (HIV-1)
[14] = molecular target: HIV-1 Env of strain 263-8 (HIV-1)
[15] = molecular target: HIV-1 Env of strain 7030102001E5(Rev) (HIV-1)
[16] = molecular target: HIV-1 Env of strain HIV-0013095-2.11 (HIV-1)
[17] = molecular target: HIV-1 Env of strain BJOX028000.10.3 (HIV-1)
[18] = molecular target: Env of HIV-1 strain 231965.c01 (HIV-1)
[19] = molecular target: Env of HIV-1 strain 928-28 (HIV-1)
[20] = molecular target: Env of HIV-1 strain 3103.v3.c10 (HIV-1)
[21] = molecular target: Env of HIV-1 strain 6952.v1.c20 (HIV-1)
[22] = molecular target: Env of HIV-1 strain TRO.11 (HIV-1)
[23] = molecular target: Env of HIV-1 strain HIV-001428-2.42 (HIV-1)
[24] = molecular target: Env of HIV-1 strain CNE5 (HIV-1)
[25] = molecular target: Env of HIV-1 strain 6535.3 (HIV-1)
[26] = molecular target: Env of HIV-1 strain MS208.A1 (HIV-1)
[27] = molecular target: Env of HIV-1 strain TRJO4551.58 (HIV-1)
[28] = molecular target: Env of HIV-1 strain 249M B10 (HIV-1)
[29] = molecular target: Env of HIV-1 strain CNE30 (HIV-1)
[30] = molecular target: Env of HIV-1 strain Du156.12 (HIV-1)
[31] = molecular target: Env of HIV-1 strain 211-9 (HIV-1)
[32] = molecular target: Env of HIV-1 strain Q23.17 (HIV-1)
[33] = molecular target: Env of HIV-1 strain HIV-0013095-2.11 (HIV-1)
[34] = molecular target: Env of HIV-1 strain T257-31 (HIV-1)
[35] = molecular target: Env of HIV-1 strain 246F C1G (HIV-1)
[36] = molecular target: Env of HIV-1 strain BJOX028000.10.3 (HIV-1)
[37] = molecular target: Env of HIV-1 strain ZM249M.PL1 (HIV-1)
[38] = molecular target: Env of HIV-1 strain CNE20 (HIV-1)
[39] = molecular target: Env of HIV-1 strain 89-F1_2_25 (HIV-1)
[40] = molecular target: Env of HIV-1 strain 191955_A11 (HIV-1)
[41] = molecular target: Env of HIV-1 strain ZM233M.PB6 (HIV-1)
[42] = molecular target: Env of HIV-1 strain 3415.v1.c1 (HIV-1)
[43] = molecular target: Env of HIV-1 strain 263-8 (HIV-1)
[44] = molecular target: Env of HIV-1 strain Q842.d12 (HIV-1)
[45] = molecular target: Env of HIV-1 strain 3301.v1.c24 (HIV-1)
[46] = molecular target: Env of HIV-1 strain Q461.e2 (HIV-1)
[47] = molecular target: Env of HIV-1 strain 191821_E6_1 (HIV-1)
[48] = molecular target: Env of HIV-1 strain REJO4541.67 (HIV-1)
[49] = molecular target: Env of HIV-1 strain CNE53 (HIV-1)
[50] = molecular target: Env of HIV-1 strain Du172.17 (HIV-1)
[51] = molecular target: Env of HIV-1 strain Ce703010054_2A2 (HIV-1)

B1: NIH45-46^G54W(HC), S28Y(LC) (antibody, V domains shown)
VH: QVRLSQSGGQMKKPGESMRLSCRASGYEFLNCPINWIRLAPGRRPEWMGWLKPRWGAVNYARKFQGRVTMTRDVYSDTAFLELRSLTSDDTAVYFCTRGKYCTARDYYNWDFEHWGRGAPVTVSS
VL: EIVLTQSPATLSLSPGETAIISCRTSQYGSLAWYQQRPGQAPRLVIYSGSTRAAGIPDRFSGSRWGADYNLSISNLESGDFGVYYCQQYEFFGQGTKVQVDI
[1]
  IC50, pseudovirus neutralization: > 50 µg/mL
[2]
  IC50, pseudovirus neutralization: 0.05 µg/mL
[3]
  IC50, pseudovirus neutralization: 0.001 µg/mL
[4]
  IC50, pseudovirus neutralization: 0.002 µg/mL
[5]
  IC50, pseudovirus neutralization: 0.001 µg/mL
[6]
  IC50, pseudovirus neutralization: 0.012 µg/mL
[7]
  IC50, pseudovirus neutralization: 0.022 µg/mL
[8]
  IC50, pseudovirus neutralization: 0.001 µg/mL
[9]
  IC50, pseudovirus neutralization: 0.032 µg/mL
[10]
  IC50, pseudovirus neutralization: 0.03 µg/mL
[11]
  IC50, pseudovirus neutralization: 0.001 µg/mL
[12]
  IC50, pseudovirus neutralization: 0.07 µg/mL
[13]
  IC50, pseudovirus neutralization: 1.38 µg/mL
[14]
  IC50, pseudovirus neutralization: 0.018 µg/mL
[15]
  IC50, pseudovirus neutralization: 0.038 µg/mL
[16]
  IC50, pseudovirus neutralization: 0.002 µg/mL
[17]
  IC50, pseudovirus neutralization: 0.001 µg/mL

B2: NIH45-46^G54W (antibody, V domains shown)
VH: QVRLSQSGGQMKKPGESMRLSCRASGYEFLNCPINWIRLAPGRRPEWMGWLKPRWGAVNYARKFQGRVTMTRDVYSDTAFLELRSLTSDDTAVYFCTRGKYCTARDYYNWDFEHWGRGAPVTVSS
VL: EIVLTQSPATLSLSPGETAIISCRTSQSGSLAWYQQRPGQAPRLVIYSGSTRAAGIPDRFSGSRWGADYNLSISNLESGDFGVYYCQQYEFFGQGTKVQVDI
[18]
  IC80: 0.035 µg/mL
[19]
  IC80: 0.25 µg/mL
[1]
  IC50, pseudovirus neutralization: > 50 µg/mL
[20]
  IC80: 0.56 µg/mL
[21]
  IC80: 0.01 µg/mL
[2]
  IC50, pseudovirus neutralization: 0.013 µg/mL
[22]
  IC80: 0.13 µg/mL
[23]
  IC80: 0.001 µg/mL
[24]
  IC80: 0.116 µg/mL
[25]
  IC80: 0.13 µg/mL
[26]
  IC80: 0.17 µg/mL
[27]
  IC80: 0.05 µg/mL
[3]
  IC50, pseudovirus neutralization: 0.001 µg/mL
[28]
  IC80: 0.019 µg/mL
[29]
  IC80: 0.196 µg/mL
[30]
  IC80: 0.005 µg/mL
[31]
  IC80: > 50 µg/mL
[32]
  IC80: 0.03 µg/mL
[33]
  IC80: 0.027 µg/mL
[34]
  IC80: 0.45 µg/mL
[35]
  IC80: 2.45 µg/mL
[4]
  IC50, pseudovirus neutralization: 0.001 µg/mL
[36]
  IC80: 0.002 µg/mL
[37]
  IC80: 0.007 µg/mL
[5]
  IC50, pseudovirus neutralization: 0.001 µg/mL
[6]
  IC50, pseudovirus neutralization: 0.001 µg/mL
[38]
  IC80: 0.48 µg/mL
[39]
  IC80: > 50 µg/mL
[7]
  IC50, pseudovirus neutralization: 0.031 µg/mL
[8]
  IC50, pseudovirus neutralization: 0.001 µg/mL
[40]
  IC80: 0.076 µg/mL
[41]
  IC80: 0.11 µg/mL
[42]
  IC80: 0.023 µg/mL
[9]
  IC50, pseudovirus neutralization: 0.009 µg/mL
[10]
  IC50, pseudovirus neutralization: 0.005 µg/mL
[43]
  IC80: 0.025 µg/mL
[11]
  IC50, pseudovirus neutralization: 0.001 µg/mL
[44]
  IC80: 0.025 µg/mL
[45]
  IC80: 0.004 µg/mL
[12]
  IC50, pseudovirus neutralization: 0.021 µg/mL
[46]
  IC80: 0.091 µg/mL
[47]
  IC80: 0.099 µg/mL
[48]
  IC80: 0.013 µg/mL
[49]
  IC80: 0.005 µg/mL
[13]
  IC50, pseudovirus neutralization: 0.769 µg/mL
[50]
  IC80: 42.9 µg/mL
[14]
  IC50, pseudovirus neutralization: 0.001 µg/mL
[15]
  IC50, pseudovirus neutralization: 0.042 µg/mL
[51]
  IC80: 0.077 µg/mL
[16]
  IC50, pseudovirus neutralization: 0.005 µg/mL
[17]
  IC50, pseudovirus neutralization: 0.001 µg/mL

B3: NIH45-46^G54W(HC) S28Y(LC) (antibody, V domains shown)
VH: QVRLSQSGGQMKKPGESMRLSCRASGYEFLNCPINWIRLAPGRRPEWMGWLKPRWGAVNYARKFQGRVTMTRDVYSDTAFLELRSLTSDDTAVYFCTRGKYCTARDYYNWDFEHWGRGAPVTVSS
VL: EIVLTQSPATLSLSPGETAIISCRTSQYGSLAWYQQRPGQAPRLVIYSGSTRAAGIPDRFSGSRWGADYNLSISNLESGDFGVYYCQQYEFFGQGTKVQVDI
[18]
  IC80: 0.035 µg/mL
[19]
  IC80: 0.159 µg/mL
[20]
  IC80: 0.594 µg/mL
[21]
  IC80: 0.042 µg/mL
[22]
  IC80: 0.079 µg/mL
[23]
  IC80: 0.002 µg/mL
[24]
  IC80: 0.137 µg/mL
[25]
  IC80: 0.059 µg/mL
[26]
  IC80: 0.089 µg/mL
[27]
  IC80: 0.02 µg/mL
[28]
  IC80: 0.017 µg/mL
[29]
  IC80: 0.239 µg/mL
[30]
  IC80: 0.024 µg/mL
[31]
  IC80: 0.898 µg/mL
[32]
  IC80: 0.05 µg/mL
[33]
  IC80: 0.017 µg/mL
[34]
  IC80: 0.471 µg/mL
[35]
  IC80: 0.14 µg/mL
[36]
  IC80: 0.006 µg/mL
[37]
  IC80: 0.017 µg/mL
[38]
  IC80: 0.02 µg/mL
[39]
  IC80: > 50 µg/mL
[40]
  IC80: 0.046 µg/mL
[41]
  IC80: 0.083 µg/mL
[42]
  IC80: 0.054 µg/mL
[43]
  IC80: 0.067 µg/mL
[44]
  IC80: 0.017 µg/mL
[45]
  IC80: 0.006 µg/mL
[46]
  IC80: 0.134 µg/mL
[47]
  IC80: 0.13 µg/mL
[48]
  IC80: 0.01 µg/mL
[49]
  IC80: 0.039 µg/mL
[50]
  IC80: 0.125 µg/mL
[51]
  IC80: 0.051 µg/mL
